From paper PMC9937993, “Structures of the NDP-pyranose mutase belonging to glycosyltransferase family 75 reveal residues important for Mn^2+ coordination and substrate binding” (The Journal of Biological Chemistry, 2023)

Key:
[1] = target: MtdL E341K mutant (Marinactinospora thermotolerans SCSIO 00652); assay: SEC-MALS; static light scattering (SLC): Superdex 200 Increase column on an Akta Pure L system, on-line eight-angle static light scattering detector (DAWN HELEOS II) and differential refractive index detector; molar masses by ASTRA 7.0.1
[2] = target: MtdL wildtype, His6-tagged (Marinactinospora thermotolerans SCSIO 00652); assay: as above

| Substance | stoichiometry N [1] | stoichiometry N [2] |
| --- | --- | --- |
| MtdL E341K mutant (enzyme) | 2 | – |
| MtdL wildtype, His6-tagged (enzyme) | – | 4 |
